To fix the notation:
B1: CPEB3 Ribozyme (parent)
chain: GGGGGCCACAGCAGAAGCGUUCACGUCGCGGCCCCUGUCAGAUUCUGGUGAAUCUGCGAAUUCUGCUGU

For 167 variants, self-cleavage results are on record in the RNAGym collection of RNA variant scans (doi:10.7554/elife.80360).

The variants in the series derive from B1. The experiment in a line: self-cleavage, relative activity (ratio to wild type); higher = more cleavage; co-transcriptional.
In the case of A8C G37A, the self-cleavage was 0.207.
Next, A8G G31A: 0.865.
With A8G G31U, the self-cleavage was 0.649.
Turning to A8C G17A, the self-cleavage was 0.269.
In the case of A8C G17U, the self-cleavage came out at 0.444.
Next, A8C G17C: 0.165; A8G U53G: 0.646.
Next, A8G G19C: 0.161; A8G G19U: 0.0891; A8G G47U: 0.92.
For A8G G47C the value was 0.945.
Consider A8U C32G, for which the self-cleavage came out at 0.368.
For the variant A8U C32U, the self-cleavage is 0.944.
Next, A8U C32A: 0.877; A8G A52U: 0.803.
Next, A8G A52G: 0.902.
For the variant A8G A52C, the self-cleavage was found to be 0.768.
For A8C C18G the value was 0.186; for A8C C18U, 0.88.
Next, A8U C39G: 0.988; A8U C39A: 0.864; A8G A40G: 0.723.
For A8G A40C, the self-cleavage was 0.103.
Turning to A8G A40U, the self-cleavage turned out to be 0.333.
Next, A8C G58A: 0.944.
Consider A8C U20C, for which the self-cleavage came to 0.166.
For A8C U20A, the self-cleavage was determined as 0.114.
For A8G C45A the value was 0.8.
For A8G C45U the value was 0.8; for A8G C24U, 0.174; for A8G C24G, 0.15.
For A8G C24A, the self-cleavage was 0.446.
Next, A8U C9U: 1.02; A8U C9G: 1.01.
With A8C U53G, the self-cleavage is 0.89.
Consider A8C U53A, for which the self-cleavage was 0.919.
For A8C U53C the value was 0.902.
Next, A8G G30C: 0.602; A8G G30U: 0.335; A8G G30A: 0.861.
A8G C9G: the self-cleavage was determined as 0.915.
For the variant A8G C9U, the self-cleavage amounted to 0.954.
On to A8C A59U, for which the self-cleavage came to 0.821.
For A8C A59G the value was 1; for A8G G50C, 0.791; for A8G A42C, 0.59.
For the variant A8G A42U, the self-cleavage was 0.622.
As for A8G A42G, the self-cleavage worked out at 0.536.
Next, A8U C12G: 0.897; A8U C12A: 0.683; A8U A59C: 0.601.
For A8U A59U the value was 0.799.
With A8G U26G, the self-cleavage was 0.622.
Next, A8G U26C: 0.325; A8G U26A: 0.644.
A8G U49A: the self-cleavage turned out to be 0.938.
For A8G U49G the value was 0.895; for A8G U49C, 0.828.
Next, A8U C34U: 0.985.
On to A8U C34G, for which the self-cleavage was found to be 0.718.
In the case of A8U C34A, the self-cleavage came out at 0.854.
For A8U G65C the value was 0.644; for A8U G65U, 0.768; for A8U G47U, 0.999.
Next, A8U G47C: 1.03; A8U G47A: 1.01.
As to A8U A40U, the self-cleavage turned out to be 0.781.
For the variant A8U A40C, the self-cleavage came out at 0.639.
For A8C U69G the value was 1.04.
For A8C U69A the value was 1.01; for A8C C24U, 0.753; for A8C C24G, 0.488.
For A8G C32A the value was 0.701; for A8U A23G, 0.965; for A8U A23U, 1.
A8G G48A: the self-cleavage amounted to 0.939.
Next, A8G G48U: 0.943.
Next, A8G C29G: 0.496; A8G C29U: 0.761; A8G C29A: 0.647.
Consider A8G U43G, for which the self-cleavage amounted to 0.398.
For A8G U43A the value was 0.401; for A8C U36G, 0.192.
In the case of A8C U36A, the self-cleavage amounted to 0.205.
Next, A8C U36C: 0.819.
Take A8C C27G: the self-cleavage was determined as 0.112.
Consider A8C C27A, for which the self-cleavage worked out at 0.555.
Next, A8C G25A: 0.148; A8C G25C: 0.113.
Next, A8C A52G: 0.974; A8C A52C: 0.941; A8U G41C: 0.809.
In the case of A8U G41U, the self-cleavage came out at 0.877.
For A8C U21C the value was 0.854; for A8C G48C, 1.02.
Regarding A8C G48U, the self-cleavage turned out to be 1.02.
For A8U A15U the value was 0.882; for A8U A15G, 0.998.
For A8C C57A the value was 0.352; for A8C C57U, 0.357.
With A8C C57G, the self-cleavage was 0.446.
For the variant A8C U38C, the self-cleavage is 0.9.
For A8U C63A the value was 0.891; for A8G G68U, 0.841.
Next, A8G G68C: 0.851; A8G G68A: 0.912; A8C G65U: 0.676.
For the variant A8C G65A, the self-cleavage is 0.928.
For A8C G56A the value was 0.999.
Turning to A8C G56C, the self-cleavage was 0.83.
On to A8G A59G, for which the self-cleavage was 0.897.
On to A8G A59U, for which the self-cleavage came out at 0.401.
For A8G A59C, the self-cleavage amounted to 0.162.
On to A8C G31C, for which the self-cleavage is 0.267.
As for A8C G31U, the self-cleavage worked out at 0.664.
For the variant A8G A51C, the self-cleavage is 0.706.
For A8C G28U the value was 0.154.
Regarding A8C G28C, the self-cleavage turned out to be 0.122.
Next, A8G U62A: 0.394; A8G U62C: 0.253; A8U C66G: 0.826.
Consider A8C U55G, for which the self-cleavage amounted to 0.851.
As for A8C U55A, the self-cleavage is 0.969.
Next, A8G A60G: 0.393; A8G A60U: 0.25.
Turning to A8C U61G, the self-cleavage was 0.937.
Next, A8C U61C: 0.776; A8G U69G: 1.04.
A8C C54G: the self-cleavage came out at 0.876.
For A8C C54U the value was 1; for A8C C34G, 0.859.
Next, A8C C34A: 0.834; A8C C34U: 0.972; A8U C24A: 0.763.
In the case of A8U C24G, the self-cleavage came out at 0.444.
For the variant A8U C24U, the self-cleavage came to 0.713.
Next, A8C U64C: 0.86; A8C U64G: 0.892; A8G A23U: 0.858.
As for A8G A23G, the self-cleavage came out at 0.623.
Next, A8G C18G: 0.0214.
For A8G C18A the value was 0.12.
For A8G C18U the value was 0.207; for A8C G68C, 1.
For the variant A8C G68U, the self-cleavage is 1.02.
For A8C C29A, the self-cleavage worked out at 0.532.
In the case of A8U C33G, the self-cleavage stood at 0.685.
For A8U G11U the value was 0.902; for A8U G11A, 0.906.
Turning to A8U G58U, the self-cleavage was determined as 1.03.
Turning to A8U G58C, the self-cleavage came to 0.988.
Next, A8C U62G: 0.9.
Take A8C U62C: the self-cleavage worked out at 0.841.
Turning to A8C U62A, the self-cleavage stood at 0.898.
For A8U G19A the value was 0.198; for A8C C63U, 0.972; for A8C C63A, 0.76.
Next, A8U C27A: 0.615; A8U C27G: 0.163; A8U C27U: 0.294.
As to A8C A40U, the self-cleavage is 0.868.
For A8U A16G the value was 0.947; for A8U A16U, 0.867; for A8U A16C, 0.309.
For A8U G68C the value was 1.02.
For A8U G68U, the self-cleavage was 1.03.
Next, A8U G68A: 0.991.
